Laboratory results: PMC8714817

Columns and labels:
[1] = molecular target: HomA, outer membrane protein of Helicobacter pylori (recombinant, C-terminal His-tag) (Helicobacter pylori strain J99); assay: SAXS; ~2.5 mg/ml protein in 20 mM Tris-Cl pH 8, 200 mM NaCl, 5 mM BME; molecular weight from Porod volume, concentration-independent
[2] = molecular target: HomA, outer membrane protein of Helicobacter pylori (recombinant, C-terminal His-tag) (Helicobacter pylori strain J99); assay: SDS-PAGE of SEC fractions; monomer and dimer peak fractions of the size exclusion runs on SDS-PAGE with or without beta-mercaptoethanol
[3] = molecular target: HomA, outer membrane protein of Helicobacter pylori (recombinant, C-terminal His-tag) (Helicobacter pylori strain J99); assay: SEC; 1 mg protein on Superose 12, 50 mM Tris-Cl pH 8.0, 300 mM NaCl, 4 °C, 0.5 ml/min; alone or with detergents (LDAO, CHAPS, TWEEN 20) or 1 mM lipids (DMPC, DOPC); calibrated with molecular weight markers
[4] = molecular target: HomB, outer membrane protein of Helicobacter pylori (recombinant, C-terminal His-tag) (Helicobacter pylori strain J99); assay: SAXS; ~2.5 mg/ml protein in 20 mM Tris-Cl pH 8, 200 mM NaCl, 5 mM BME; molecular weight from Porod volume, concentration-independent
[5] = molecular target: HomB, outer membrane protein of Helicobacter pylori (recombinant, C-terminal His-tag) (Helicobacter pylori strain J99); assay: SDS-PAGE of SEC fractions; monomer and dimer peak fractions of the size exclusion runs on SDS-PAGE with or without beta-mercaptoethanol
[6] = molecular target: HomB, outer membrane protein of Helicobacter pylori (recombinant, C-terminal His-tag) (Helicobacter pylori strain J99); assay: SEC; 1 mg protein on Superose 12, 50 mM Tris-Cl pH 8.0, 300 mM NaCl, 4 °C, 0.5 ml/min; alone or with detergents (LDAO, CHAPS, TWEEN 20) or 1 mM lipids (DMPC, DOPC); calibrated with molecular weight markers

Measured: stoichiometry N

HomA, outer membrane protein of Helicobacter pylori (recombinant, C-terminal His-tag) (natural protein)
2: [1] | [2] | [3]

HomB, outer membrane protein of Helicobacter pylori (recombinant, C-terminal His-tag) (natural protein)
2: [4] | [5] | [6]
